As a reminder, the Kd is the concentration at which binding is half-saturated. Read a high Kd as lower affinity.

The record followed here is US20080102072A1.

In experiment [1] the target is human IFNAR1, membrane receptor on cells (U266 human myeloma cells; Hela and A549 cells in the functional assays) (human) (UniProt P17181). Put plainly: cell-based or functional assay.
Experiment [2] has the same target. Put plainly: flow cytometry on U266 cells, fluoresceinated mAb 1 µg/100 µl, no soluble hIFNAR1.
Experiment [3] shares this target. As to the kind of experiment: flow cytometry on U266 cells, F-mAb preincubated with competitor: 10 µg soluble wild type hIFNAR1-IgG.
In experiment [4] the target is hIFNAR1 ECD-IgG fusion protein (immunoadhesin, pRK5 hIFNAR1-IgG clone 53.65), wild type (human). Put plainly: competitive radioimmunoprecipitation with 125I-hIFNAR1-IgG and unlabeled hIFNAR1-IgG, Scatchard analysis.
Experiment [5] has as its target IFNAR1-IgG multiple alanine mutant 1, residues 19-25 (RWNRSDE to AWNASAA) (human). As to the kind of experiment: capture ELISA, mutant IFNAR1-IgG captured by goat anti-hIgG-Fc, mAb 10 µg/ml; OD as % of wild type IFNAR1-IgG. (ELISA stands for enzyme-linked immunosorbent assay.)
The target in experiment [6] is IFNAR1-IgG multiple alanine mutant 10, residues 383-388 (DEKLNK to AAALNA) (human). Described as above.
The target of experiment [7] is IFNAR1-IgG multiple alanine mutant 2, residues 69-74 (EEIKLR to AAIALA) (human). The experiment is described as above.
In experiment [8] the target is IFNAR1-IgG multiple alanine mutant 3, residues 76-80 (RAEKE to AAAAA) (human). Described as above.
Experiment [9] addresses IFNAR1-IgG multiple alanine mutant 4, residues 103-111 (… to …) (human). The experiment is described as above.
Experiment [10] has as its target IFNAR1-IgG multiple alanine mutant 5, residues 148-152 (EERIE to AAAIA) (human). The experiment is described as above.
In experiment [11] the target is IFNAR1-IgG multiple alanine mutant 6, residues 157-162 (RHKIYK to AAAIYA) (human). The experiment is described as above.
For experiment [12], the target named is IFNAR1-IgG multiple alanine mutant 7, residues 244-249 (HLYKWK to ALYAWA) (human). The description is as above.
Experiment [13] deals with IFNAR1-IgG multiple alanine mutant 8, residues 291-298 (EEIKFDTE to AAIAFATA) (human). The experiment is described as above.
Experiment [14] concerns the target IFNAR1-IgG multiple alanine mutant 9, residues 352-359 (ERKIIEKK to AAAIIAAA) (human). Described as above.
The target of experiment [15] is IFNAR1-IgG single alanine mutant D296A (human). Put plainly: capture ELISA, single alanine mutant IFNAR1-IgG captured by goat anti-hIgG-Fc; OD as % of wild type IFNAR1-IgG.
Experiment [16] concerns the target IFNAR1-IgG single alanine mutant E291A (human). Described as above.
For experiment [17], the target named is IFNAR1-IgG single alanine mutant E292A (human). The description is as above.
For experiment [18], the target named is IFNAR1-IgG single alanine mutant E298A (human). Described as above.
Experiment [19] deals with IFNAR1-IgG single alanine mutant E69A (human). The experiment is described as above.
In experiment [20] the target is IFNAR1-IgG single alanine mutant E70A (human). The experiment is described as above.
The target of experiment [21] is IFNAR1-IgG single alanine mutant H244A (human). Described as above.
For experiment [22], the target named is IFNAR1-IgG single alanine mutant K247A (human). The description is as above.
In experiment [23] the target is IFNAR1-IgG single alanine mutant K249A (human). Described as above.
The target in experiment [24] is IFNAR1-IgG single alanine mutant K294A (human). The experiment is described as above.
The target in experiment [25] is IFNAR1-IgG single alanine mutant K72A (human). The description is as above.
Experiment [26] addresses IFNAR1-IgG single alanine mutant R74A (human). Described as above.
Experiment [27] has as its target human IFNAR1, membrane receptor on cells (U266 human myeloma cells; Hela and A549 cells in the functional assays) (human) (UniProt P17181). As to the kind of experiment: flow cytometry on U266 cells, F-mAb preincubated with competitor: 10 µg soluble hIFNAR1-IgG Mutant #7 (244-249). In general terms: Flow cytometry measures light scatter and fluorescence of single cells or particles in a stream.

Experiment [28] shares this target. As to the kind of experiment: flow cytometry on U266 cells, F-mAb preincubated with competitor: 10 µg soluble hIFNAR1-IgG Mutant #8 (291-298).
The target is the same in experiment [29]. Put plainly: flow cytometry on U266 cells, fluoresceinated control IgG, no soluble hIFNAR1.

Sequence of UniProt P17181 (P17181 28-557): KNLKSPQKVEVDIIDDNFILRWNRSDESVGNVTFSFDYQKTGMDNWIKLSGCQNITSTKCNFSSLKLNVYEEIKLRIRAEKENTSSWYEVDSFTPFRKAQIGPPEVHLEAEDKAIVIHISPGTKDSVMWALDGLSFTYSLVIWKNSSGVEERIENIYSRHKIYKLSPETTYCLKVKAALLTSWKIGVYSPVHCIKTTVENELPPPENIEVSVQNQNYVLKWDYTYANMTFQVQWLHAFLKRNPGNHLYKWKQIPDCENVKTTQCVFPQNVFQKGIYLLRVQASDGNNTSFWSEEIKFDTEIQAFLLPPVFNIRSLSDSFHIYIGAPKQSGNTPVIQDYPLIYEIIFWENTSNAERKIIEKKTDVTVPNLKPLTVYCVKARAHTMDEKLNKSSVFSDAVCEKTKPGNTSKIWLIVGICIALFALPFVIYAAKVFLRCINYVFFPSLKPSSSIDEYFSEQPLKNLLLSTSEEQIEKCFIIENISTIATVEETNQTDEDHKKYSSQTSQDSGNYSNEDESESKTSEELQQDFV
Sequence of hIFNAR1 ECD-IgG fusion protein (immunoadhesin, pRK5 hIFNAR1-IgG clone 53.65), wild type (human) (chain, as listed by the source limits assumed): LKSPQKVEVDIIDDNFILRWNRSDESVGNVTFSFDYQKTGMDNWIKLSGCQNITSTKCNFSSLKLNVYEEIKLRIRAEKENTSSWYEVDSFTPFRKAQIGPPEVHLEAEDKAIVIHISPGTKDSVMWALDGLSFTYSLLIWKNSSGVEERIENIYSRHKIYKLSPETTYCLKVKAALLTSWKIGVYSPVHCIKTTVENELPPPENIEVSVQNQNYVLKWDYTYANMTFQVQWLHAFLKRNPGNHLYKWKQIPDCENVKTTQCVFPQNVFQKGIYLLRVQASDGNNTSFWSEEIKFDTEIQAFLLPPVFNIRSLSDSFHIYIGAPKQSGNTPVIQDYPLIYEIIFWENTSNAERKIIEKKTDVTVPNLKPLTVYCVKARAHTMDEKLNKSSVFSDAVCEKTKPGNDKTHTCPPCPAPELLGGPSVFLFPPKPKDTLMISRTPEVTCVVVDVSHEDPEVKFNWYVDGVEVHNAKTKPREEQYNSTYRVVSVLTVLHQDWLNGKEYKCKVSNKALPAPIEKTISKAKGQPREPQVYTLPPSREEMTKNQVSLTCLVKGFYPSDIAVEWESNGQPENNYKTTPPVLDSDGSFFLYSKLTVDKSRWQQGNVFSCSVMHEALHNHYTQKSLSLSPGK
Sequence of IFNAR1-IgG multiple alanine mutant 1, residues 19-25 (RWNRSDE to AWNASAA) (human) (chain, as listed by the source mutant limits assumed): as the sequence (chain, as listed by the source limits assumed) above, with R19A, R22A, D24A, E25A counted along it
Sequence of IFNAR1-IgG multiple alanine mutant 3, residues 76-80 (RAEKE to AAAAA) (human) (chain, as listed by the source mutant limits assumed): as the sequence (chain, as listed by the source limits assumed) above, with R76A, E78A, K79A, E80A counted along it
Sequence of IFNAR1-IgG single alanine mutant E298A (human) (chain, as listed by the source E298A E298A limits assumed): as the sequence (chain, as listed by the source limits assumed) above, with E298A counted along it
Sequence of IFNAR1-IgG multiple alanine mutant 2, residues 69-74 (EEIKLR to AAIALA) (human) (chain, as listed by the source mutant limits assumed): as the sequence (chain, as listed by the source limits assumed) above, with E69A, E70A, K72A, R74A counted along it
Sequence of IFNAR1-IgG single alanine mutant E69A (human) (chain, as listed by the source E69A E69A limits assumed): as the sequence (chain, as listed by the source limits assumed) above, with E69A counted along it
Sequence of IFNAR1-IgG multiple alanine mutant 6, residues 157-162 (RHKIYK to AAAIYA) (human) (chain, as listed by the source mutant limits assumed): as the sequence (chain, as listed by the source limits assumed) above, with R157A, H158A, K159A, K162A counted along it

“anti-hIFNAR1 monoclonal antibody 2E8 (hybridoma ATCC HB 12130)” showed an EC50 of mAb neutralizing the anti-viral cytopathic effect of 10 units/ml IFNα1 on A549 cells (EMC virus) in [1] above 30 µg/mL. Also, the EC50 of mAb neutralizing the anti-viral cytopathic effect of 10 units/ml IFNα2/1 on A549 cells (EMC virus) in experiment [1] is above 30 µg/mL. Besides, in experiment [1], the EC50 of mAb neutralizing the anti-viral cytopathic effect of 10 units/ml IFNα2 on A549 cells (EMC virus) was above 30 µg/mL. In experiment [1], this substance showed an EC50 of mAb neutralizing the anti-viral cytopathic effect of 10 units/ml IFNα5 on A549 cells (EMC virus) above 30 µg/mL. In experiment [1], this substance registered an EC50 of mAb neutralizing the anti-viral cytopathic effect of 10 units/ml IFNα8 on A549 cells (EMC virus) above 30 µg/mL. Besides, in experiment [1], the EC50 of mAb neutralizing the anti-viral cytopathic effect of 10 units/ml IFNβ on A549 cells (EMC virus) is above 30 µg/mL. In addition, the Mean Fluorescence Intensity was 7.96 in [2], 3.16 in experiment [3], 3.27 in experiment [27] and 7.6 in [28]. This substance also gave a Kd in [4] of 0.097 nM. Moreover, the % Wild type binding of mAbs in experiment [5] is 84%; in experiment [6], 116%; in experiment [7], 18%; in experiment [8] it was 69%; in experiment [9], 33%; in [10] it was 43%. Besides, the % Wild type binding of mAbs in experiment [11] stood at 77%; in [12], 77%; in experiment [13], 0%; in [14], 81%; in experiment [15] it was 3%; in experiment [16], 3%. Further, the % Wild type binding of mAbs came to 29% in [17]; 31% in experiment [18]; 72% in [19]; 80% in experiment [20]; 96% in experiment [21]; 66% in experiment [22]. Also, the % Wild type binding of mAbs is 54% in [23], 54% in experiment [24], 89% in experiment [25] and 53% in experiment [26].
“anti-hIFNAR1 monoclonal antibody 4A7 (hybridoma ATCC HB 12132)” had an EC50 of mAb neutralizing the anti-viral cytopathic effect of 10 units/ml IFNα1 on A549 cells (EMC virus) in [1] of 10 µg/mL. Besides, the EC50 of mAb neutralizing the anti-viral cytopathic effect of 10 units/ml IFNα2/1 on A549 cells (EMC virus) in [1] came out at 20 µg/mL. This substance also returned an EC50 of mAb neutralizing the anti-viral cytopathic effect of 10 units/ml IFNα2 on A549 cells (EMC virus) in [1] of 10 µg/mL. Further, the EC50 of mAb neutralizing the anti-viral cytopathic effect of 10 units/ml IFNα5 on A549 cells (EMC virus) in experiment [1] came out at 6 µg/mL. Further, the EC50 of mAb neutralizing the anti-viral cytopathic effect of 10 units/ml IFNα8 on A549 cells (EMC virus) in [1] was 3 µg/mL. In [1], this substance came in with an EC50 of mAb neutralizing the anti-viral cytopathic effect of 10 units/ml IFNβ on A549 cells (EMC virus) above 30 µg/mL. The Mean Fluorescence Intensity in [2] amounted to 9.49; in [3] it was 2.45; in [27] it was 2.95; in experiment [28] it was 3.16. Besides, the Kd in experiment [4] amounted to 0.052 nM. For the same substance, the % Wild type binding of mAbs in [5] was determined as 95%; in experiment [6], 103%; in experiment [7], 0%; in experiment [8], 92%; in experiment [9] it was 80%; in [10], 90%. The % Wild type binding of mAbs in [11] was 100%; in [12] it was 106%; in experiment [13], 96%; in [14], 101%; in experiment [15], 53%; in experiment [16], 58%. For the same substance, the % Wild type binding of mAbs in experiment [17] came to 58%; in experiment [18], 60%; in experiment [19], 69%; in experiment [20], 85%; in [21], 96%; in experiment [22] it was 86%. Also, the % Wild type binding of mAbs turned out to be 73% in experiment [23], 69% in [24], 91% in experiment [25] and 30% in experiment [26].
For the substance control IgG (antibody), the Mean Fluorescence Intensity in [29] is 2.99.
